The supplement of paper PMC10899765

The sequences below were run on MCF10A (assay: 5+ nucleoli phenotype percent effect (relative to siNT 0% and siKIF11 100%); higher = more cells with five or more nucleoli). Conditions: 20 nM; 72 h.
Description: (§1)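 After 72 h, cells were fixed and stained with Hoechst and anti-fibrillarin, and nucleoli per nucleus were counted with CellProfiler. Values are plate-adjusted percent effect for the one-nucleolus and 5+ nucleoli phenotypes, normalised to siNT (0%) and to the positive controls siNOL11 or siKIF11 (100%), as the mean of biological triplicates. Percent viability is the nuclei count relative to siNT.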
For ACCUGUCUGUGGAAAGGAGCUA [hsa-miR-4421], the “5+ nucleoli phenotype percent effect” value was -6.29%. For AAUCAUACACGGUUGACCUAUU [hsa-miR-154-3p], the “5+ nucleoli phenotype percent effect” value was -5.26%. For AUGGUCUCCUGUUCUCUGCAG [hsa-miR-6843-3p], the “5+ nucleoli phenotype percent effect” value was 7.69%. For UGAGGGGUUUGGAAUGGGAUGG [hsa-miR-5194], the “5+ nucleoli phenotype percent effect” value was 21%. With GUGUCUGCUUCCUGUGGGA [hsa-miR-632] the “5+ nucleoli phenotype percent effect” value was -24.2%. With UGCCCUUCUCUCCUCCUGCCU [hsa-miR-6886-3p] the “5+ nucleoli phenotype percent effect” value was -2.46%. In the case of AGACCUGGCCCAGACCUCAGC [hsa-miR-631], the “5+ nucleoli phenotype percent effect” value is reported as -2.57%. For AGGCAAGAUGCUGGCAUAGCU [hsa-miR-31-5p], the “5+ nucleoli phenotype percent effect” value was -4.74%. AGAGCUGGCUGAAGGGCAG [hsa-miR-4487] was tested, and the “5+ nucleoli phenotype percent effect” value was 16.5%. In the case of CUCCAGAGGGAUGCACUUUCU [hsa-miR-525-5p], the “5+ nucleoli phenotype percent effect” value is reported as -22.1%. In the case of AAUCCUUGCUACCUGGGU [hsa-miR-500b], the “5+ nucleoli phenotype percent effect” value is reported as 12.8%. AUAUUACCAUUAGCUCAUCUUU [hsa-miR-556-3p] was tested, and the “5+ nucleoli phenotype percent effect” value was -10.1%. In the case of UCAGGCCAGGCACAGUGGCUCA [hsa-miR-1972], the “5+ nucleoli phenotype percent effect” value is reported as 17.7%. In the case of “UGAGGAGAUCGUCGAGGUUGG [hsa-miR-3150b-3p]”, the “5+ nucleoli phenotype percent effect” value is reported as 24.3%. AGCCUGUGCUUGUCCCUGCAG [hsa-miR-6811-3p] was tested, and the “5+ nucleoli phenotype percent effect” value was -10.2%. With “CCAACCUAGGUGGUCAGAGUUG [hsa-miR-4714-3p]” the “5+ nucleoli phenotype percent effect” value was 42%. In the case of “UUCUCUUUCUUUAGCCUUGUGU [hsa-miR-4753-3p]”, the “5+ nucleoli phenotype percent effect” value is reported as -14.1%. For AAUCACUAACCACACGGCCAGG [hsa-miR-34c-3p], the “5+ nucleoli phenotype percent effect” value was 13.7%. With UCUCUGAGUACCAUAUGCCUUGU [hsa-miR-3921] the “5+ nucleoli phenotype percent effect” value was -6.05%. In the case of UUUCCUCAUAUUCAUUCAGGA [hsa-miR-670-3p], the “5+ nucleoli phenotype percent effect” value is reported as -7.45%. For CCGUGUUUCCCCCACGCUUU [hsa-miR-3676-3p], the “5+ nucleoli phenotype percent effect” value was -17.2%. For “UCUCACCCCAACUCUGCCCCAG [hsa-miR-6784-3p]”, the “5+ nucleoli phenotype percent effect” value was 44.3%. With “CGCAUCCCCUAGGGCAUUGGUGU [hsa-miR-324-5p]” the “5+ nucleoli phenotype percent effect” value was 21.4%. In the case of UGGACUGCCCUGAUCUGGAGA [hsa-miR-1288], the “5+ nucleoli phenotype percent effect” value is reported as 2.11%. For UCAGUGCAUGACAGAACUUGG [hsa-miR-152], the “5+ nucleoli phenotype percent effect” value was 69.9%. For UCACUCUCACCUUGCUUUGC [hsa-miR-4639-3p], the “5+ nucleoli phenotype percent effect” value was 3.2%. For “CUGGGAGGUGUGAUAUUGUGGU [hsa-miR-3689b-3p]”, the “5+ nucleoli phenotype percent effect” value was -12.6%. For UGUGACCCUAGAAUAAUUAC [hsa-miR-7973], the “5+ nucleoli phenotype percent effect” value was -4.82%. With CAUGCUAGGAUAGAAAGAAUGG [hsa-miR-3146] the “5+ nucleoli phenotype percent effect” value was -22.8%. With GCCGGGGCUUUGGGUGAGGG [hsa-miR-6784-5p] the “5+ nucleoli phenotype percent effect” value was 49%.

These sequences were tested on MCF10A (assay: one-nucleolus phenotype percent effect (relative to siNT 0% and siNOL11 100%); higher = more cells with one nucleolus (ribosome biogenesis inhibition)). Conditions: 20 nM; 72 h.
Description: as §1
In the case of CUAUACAACUUACUACUUUCCC [hsa-miR-98-3p], the “one-nucleolus phenotype percent effect” value is reported as -31.6%. In the case of “CCUUCACUGUGACUCUGCUGCAG [hsa-miR-6837-3p]”, the “one-nucleolus phenotype percent effect” value is reported as -30.8%. For ACCAGGAGGCUGAGGCCCCU [hsa-miR-665], the “one-nucleolus phenotype percent effect” value was 40.7%. With “AAUGACACGAUCACUCCCGUUGA [hsa-miR-425-5p]” the “one-nucleolus phenotype percent effect” value was -5.83%. “AAGCGACCAUGAUGUAACUUCA [hsa-miR-4670-5p]” was tested, and the “one-nucleolus phenotype percent effect” value was 14%. UGAGCUGCUGUACCAAAAU [hsa-miR-558] was tested, and the “one-nucleolus phenotype percent effect” value was 6.73%. “UACAGCCCUGUGAUCUUUCCAG [hsa-miR-6856-3p]” was tested, and the “one-nucleolus phenotype percent effect” value was -21%. CGUGUAUUUGACAAGCUGAGUU [hsa-miR-223-5p] was tested, and the “one-nucleolus phenotype percent effect” value was 31.4%. UUGAAAGGCUAUUUCUUGGUC [hsa-miR-488-3p] was tested, and the “one-nucleolus phenotype percent effect” value was 39.9%. For UAAUUUUAUGUAUAAGCUAGU [hsa-miR-590-3p], the “one-nucleolus phenotype percent effect” value was -23.9%. In the case of UCACAAAUCUAUAAUAUGCAGG [hsa-miR-4719], the “one-nucleolus phenotype percent effect” value is reported as -19.7%. AGGUGGAUGCAAUGUGACCUCA [hsa-miR-3165] was tested, and the “one-nucleolus phenotype percent effect” value was 1.14%. For “GAGAGGAACAUGGGCUCAGGACA [hsa-miR-6859-5p]”, the “one-nucleolus phenotype percent effect” value was -24.3%. For CUCAGUAGCCAGUGUAGAUCCU [hsa-miR-222-5p], the “one-nucleolus phenotype percent effect” value was 14%. UAGUACCAGUACCUUGUGUUCA [hsa-miR-624-5p] was tested, and the “one-nucleolus phenotype percent effect” value was -2.83%. GCUGGGCGAGGCUGGCA [hsa-miR-4486] was tested, and the “one-nucleolus phenotype percent effect” value was 19.5%. With “GUGCAUGGCUGUAUAUAUAACA [hsa-miR-5011-3p]” the “one-nucleolus phenotype percent effect” value was 0.75%. For GUGUUCUCUGAUGGACAG [hsa-miR-4273], the “one-nucleolus phenotype percent effect” value was -6.59%. For UUGGGGAAACGGCCGCUGAGUG [hsa-miR-2110], the “one-nucleolus phenotype percent effect” value was 45.4%. UGACUAACUCCCACUCUACAG [hsa-miR-6831-3p] was tested, and the “one-nucleolus phenotype percent effect” value was -28.1%. In the case of UCUACAAAGGAAAGCGCUUUCU [hsa-miR-1283], the “one-nucleolus phenotype percent effect” value is reported as -26.4%. CCCGGACAGGCGUUCGUGCGACGU [hsa-miR-3687] was tested, and the “one-nucleolus phenotype percent effect” value was -20.6%. In the case of “AGACAUCAAGAUCAGUCCCAAA [hsa-miR-3913-3p]”, the “one-nucleolus phenotype percent effect” value is reported as 34.3%. In the case of GCCCUCCGCCCGUGCACCCCG [hsa-miR-1470], the “one-nucleolus phenotype percent effect” value is reported as -19.6%. With CUCUGGGAAAUGGGACAG [hsa-miR-4314] the “one-nucleolus phenotype percent effect” value was 11.2%. In the case of CACACAUAGCAGGUGUAUAUA [hsa-miR-4789-3p], the “one-nucleolus phenotype percent effect” value is reported as -24.6%. For GAACGGCUUCAUACAGGAGUU [hsa-miR-337-5p], the “one-nucleolus phenotype percent effect” value was 9.16%. UUUGUGACCUGGUCCACUAACC [hsa-miR-758-3p] was tested, and the “one-nucleolus phenotype percent effect” value was 35.1%. With CACAGCAAGUGUAGACAGGCA [hsa-miR-3120-3p] the “one-nucleolus phenotype percent effect” value was -20.3%. In the case of “AUAUUAUUAGCCACUUCUGGAU [hsa-miR-4795-3p]”, the “one-nucleolus phenotype percent effect” value is reported as 3.49%. In the case of ACCUGUCUGUGGAAAGGAGCUA [hsa-miR-4421], the “one-nucleolus phenotype percent effect” value is reported as 15.9%. In the case of AAUCAUACACGGUUGACCUAUU [hsa-miR-154-3p], the “one-nucleolus phenotype percent effect” value is reported as -0.992%. AUGGUCUCCUGUUCUCUGCAG [hsa-miR-6843-3p] was tested, and the “one-nucleolus phenotype percent effect” value was 10.8%. With UGAGGGGUUUGGAAUGGGAUGG [hsa-miR-5194] the “one-nucleolus phenotype percent effect” value was 13.7%. GUGUCUGCUUCCUGUGGGA [hsa-miR-632] was tested, and the “one-nucleolus phenotype percent effect” value was 31.3%. With UGCCCUUCUCUCCUCCUGCCU [hsa-miR-6886-3p] the “one-nucleolus phenotype percent effect” value was -6.37%. With AGACCUGGCCCAGACCUCAGC [hsa-miR-631] the “one-nucleolus phenotype percent effect” value was 24.7%. For AGGCAAGAUGCUGGCAUAGCU [hsa-miR-31-5p], the “one-nucleolus phenotype percent effect” value was 26%. AGAGCUGGCUGAAGGGCAG [hsa-miR-4487] was tested, and the “one-nucleolus phenotype percent effect” value was 25.5%. For CUCCAGAGGGAUGCACUUUCU [hsa-miR-525-5p], the “one-nucleolus phenotype percent effect” value was 20.6%. With AAUCCUUGCUACCUGGGU [hsa-miR-500b] the “one-nucleolus phenotype percent effect” value was -0.735%. For AUAUUACCAUUAGCUCAUCUUU [hsa-miR-556-3p], the “one-nucleolus phenotype percent effect” value was -7.76%. UCAGGCCAGGCACAGUGGCUCA [hsa-miR-1972] was tested, and the “one-nucleolus phenotype percent effect” value was -4.54%. “UGAGGAGAUCGUCGAGGUUGG [hsa-miR-3150b-3p]” was tested, and the “one-nucleolus phenotype percent effect” value was -11.7%. AGCCUGUGCUUGUCCCUGCAG [hsa-miR-6811-3p] was tested, and the “one-nucleolus phenotype percent effect” value was 24.6%. In the case of “CCAACCUAGGUGGUCAGAGUUG [hsa-miR-4714-3p]”, the “one-nucleolus phenotype percent effect” value is reported as -11.1%. “UUCUCUUUCUUUAGCCUUGUGU [hsa-miR-4753-3p]” was tested, and the “one-nucleolus phenotype percent effect” value was 27.3%. AAUCACUAACCACACGGCCAGG [hsa-miR-34c-3p] was tested, and the “one-nucleolus phenotype percent effect” value was -3.51%. UCUCUGAGUACCAUAUGCCUUGU [hsa-miR-3921] was tested, and the “one-nucleolus phenotype percent effect” value was -20.1%. UUUCCUCAUAUUCAUUCAGGA [hsa-miR-670-3p] was tested, and the “one-nucleolus phenotype percent effect” value was 4.99%. CCGUGUUUCCCCCACGCUUU [hsa-miR-3676-3p] was tested, and the “one-nucleolus phenotype percent effect” value was 4.15%. For “UCUCACCCCAACUCUGCCCCAG [hsa-miR-6784-3p]”, the “one-nucleolus phenotype percent effect” value was -25.6%. With “CGCAUCCCCUAGGGCAUUGGUGU [hsa-miR-324-5p]” the “one-nucleolus phenotype percent effect” value was -15.6%. For UGGACUGCCCUGAUCUGGAGA [hsa-miR-1288], the “one-nucleolus phenotype percent effect” value was 7.88%. With UCAGUGCAUGACAGAACUUGG [hsa-miR-152] the “one-nucleolus phenotype percent effect” value was -26.4%. In the case of UCACUCUCACCUUGCUUUGC [hsa-miR-4639-3p], the “one-nucleolus phenotype percent effect” value is reported as -11.5%. In the case of “CUGGGAGGUGUGAUAUUGUGGU [hsa-miR-3689b-3p]”, the “one-nucleolus phenotype percent effect” value is reported as 33.2%. For UGUGACCCUAGAAUAAUUAC [hsa-miR-7973], the “one-nucleolus phenotype percent effect” value was -2.95%. With CAUGCUAGGAUAGAAAGAAUGG [hsa-miR-3146] the “one-nucleolus phenotype percent effect” value was 15.7%. GCCGGGGCUUUGGGUGAGGG [hsa-miR-6784-5p] was tested, and the “one-nucleolus phenotype percent effect” value was -23.3%.
